The nanobody polyreactivity screen of Harvey et al. (2022)

Assay: yeast display, Sf9 membrane polyspecificity reagent, FACS + sequencing; frameworks hold sequencing errors
How it was run: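 Galactose induction of a Saccharomyces cerevisiae BJ5465 synthetic nanobody display library ran 36–48 hours. The cells were then stained for 1 hour at 4 °C with 10% biotinylated, detergent-solubilized Sf9 membrane reagent, pulled down on streptavidin microbeads and FACS-sorted into low and high (top ~1%) gates on expression and reagent-binding fluorescence. Labels for polyreactivity follow the gate of origin.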
For “QVQLVESGGGLVQAGGSLRLSCAASGFTSWDNDMGWYRQAPGKERELVAAISRGGSTNYADSVKGRFTISRDNAKNTVYLQMNSLNPEDTAVYYCAAEDWYQRYGYEYDYWGQGTQVTVSS”, the “polyreactivity (PSR sort gate)” value was “low polyreactivity”. With “QVQLVESGGGLVQAGGSLRLSCAASGFTSWVYAMGWYRPAPGKERELVAAITWSTDDTYYADSVKGRFTISRDNSKNTVYIQINSLKPEDSAVYYCAAQQYTYVETWDGYDYWGQGTQVTVSS” the “polyreactivity (PSR sort gate)” value was “low polyreactivity”. With “QVQLVESGGGLVQAGGSLRLSCAASGFTSWYDMGWYRQAPGKEMELVAAISSGGSTNYADSVKGRFTISRDNAKNTVYLEMNSLKPEDTAVYYCNAECYETGVPYFGFYYWGQGTQVTVSS” the “polyreactivity (PSR sort gate)” value was “low polyreactivity”. With “QVQLVESGGGLVQAGGSLRLSCAASGFTVAYYAMGWYRQAPGKERELVAAITGSGGRTYYADSVKGRFTISRDNAKNTVYLQMTSLKPEDTAVYYCAALTGPYKAQVHGGHTPLDYWGHGTQVTVSS” the “polyreactivity (PSR sort gate)” value was “low polyreactivity”. With “QVQLVESGGGLVQAGGSLRLSCAASGFTVGYAMGWYRQAPGTERELVAAITRGGGTRTSYADSVKGRFTISRDNAKNTVYLQMNSLKPEDTAVYYCAARRWWSPRTQYDYWGQGTQVTVSS” the “polyreactivity (PSR sort gate)” value was “high polyreactivity”. In the case of “QVQLVESGGGLVQAGGSLRLSCAASGFTVRKYAMGWYRQAPGKERELVAAITWSGGRTYYADSVKGRFTISRDNAKNTVSLQMNSLKPEDTAVYYCAAVIQSRKYDSWGQGTQVTVSS”, the “polyreactivity (PSR sort gate)” value is reported as “high polyreactivity”. With “QVQLVESGGGLVQAGGSLRLSCAASGFTVSYNTMGWYRQAPGKERELVAAISARGTSTYYADSVKGRFTISRDNAKNTVYLQMNSLKPEDTAVYYCAAAYRIGSGYWGQGTQVTVSS” the “polyreactivity (PSR sort gate)” value was “high polyreactivity”. For “QVQLVESGGGLVQAGGSLRLSCAASGFTVWLYAMGWYRQAPGKEREFVAAISTSGGSTYADSVKGRFTISRDNAKKTVYLQMNSLKPEDTAVYYCAADDLPSTGYDYWGQRTQVTVSS”, the “polyreactivity (PSR sort gate)” value was “low polyreactivity”. In the case of “QVQLVESGGGLVQAGGSLRLSCAASGFTYFGYAMGWYRQAPGKERELVAAISTIDGDTYYADSVKGRFTISRDNAKNTVYLQMNSLKPEDTAVYYCAADDYIDGDDYWGQGTQVTVSS”, the “polyreactivity (PSR sort gate)” value is reported as “low polyreactivity”. For “QVQLVESGGGLVQAGGSLRLSCAASGFTYIYYAMGWYRQAPGKERELVAAITSGGRTYYADSVKGRFTISRDNAKNTVYLQMNSLKPEDTAVYYCAKRFTLPLSEYDYWGQGTQVIVSS”, the “polyreactivity (PSR sort gate)” value was “high polyreactivity”. For “QVQLVESGGGLVQAGGSLRLSCAASGFTYRRYAMGWYRQAPGKERELVAAITWSGGSTYYADSVKGRITISRDNAKNTVYLQMNSLKPEDTAVYYCNKAYSPLYFSYNYWGQGTQVTVSS”, the “polyreactivity (PSR sort gate)” value was “high polyreactivity”. With “QVQLVESGGGLVQAGGSLRLSCAASGFTYYYYAMGWYRQAHGKERELVAAISTRDGNTYYADSVKGRFTISRDNAKNTVYLQMNSLKPEDTAVYYCAADYFRYYPYDYWGQGTLVTVSS” the “polyreactivity (PSR sort gate)” value was “low polyreactivity”. With “QVQLVESGGGLVQAGGSLRLSCAASGFYYYAMGWYRQAPGKERELVAVITYSGGSTYYADSVKGRFTISRDNAKNTVYLQMNSLKPEDTAVYYCAADDYYVALPGLYDYWGQGTQVTVSS” the “polyreactivity (PSR sort gate)” value was “low polyreactivity”. In the case of “QVQLVESGGGLVQAGGSLRLSCAASGGICRYYAMGWYRPAPGKERELVAAISRGGNTKYADSVKGRFTISRDNAKNTVYLQMNSLKPEDTAVYYCNAYTYNRYYWGQGTQVTVSS”, the “polyreactivity (PSR sort gate)” value is reported as “high polyreactivity”. For “QVQLVESGGGLVQAGGSLRLSCAASGGIFAPNAMGWYRQAPGKERELVAAISTGGGSTRYADSVKGRFTISRDNAKNTVYLQMNSLKPEDTAVYYCAATRVGVRRMDYWGQGTQVTVSS”, the “polyreactivity (PSR sort gate)” value was “low polyreactivity”. For “QVQLVESGGGLVQAGGSLRLSCAASGGIFAPYAMGWYRQAPGKERELVAAISSSDGSTYYADSVKGSFTISRDNAKNTVYLQMNSLKPEDTAVYYCAADYREDYGYWGQGTQVTVSS”, the “polyreactivity (PSR sort gate)” value was “low polyreactivity”. For “QVQLVESGGGLVQAGGSLRLSCAASGGIFAPYAMGWYRQAPGKERELVADITSDGGSTYYADSVKGRFTISRDNAKNTVYLQMNSLKPEDTAVYYCAAEQRYCWWGHPGDYWGQGTQVTVSS”, the “polyreactivity (PSR sort gate)” value was “low polyreactivity”. In the case of “QVQLVESGGGLVQAGGSLRLSCAASGGIFAWYAMGWYRQAPGKERELVAAIDHSGGSTYYADSVKGRFTISRDNAKNTVYLQMNSLKPEDTAVYYCNAGYYGYWEKYDYWGQGTQVTVSS”, the “polyreactivity (PSR sort gate)” value is reported as “low polyreactivity”. For “QVQLVESGGGLVQAGGSLRLSCAASGGIFDIYAMGWYRQAPGKERELVAAIRGSGGRTYYADSVKGRFTISRDNAKNTVYLQMNSLKPEDTAVYYCAARPSIVTGLRYGYWGQGTQVTVSS”, the “polyreactivity (PSR sort gate)” value was “high polyreactivity”. For “QVQLVESGGGLVQAGGSLRLSCAASGGIFDTNAMGWYRQAPGKEREFVAAITGSGGSTYYADSVKGRFTISRDNAKNTVYLQMNSLKPEDTAVYYCAAPLSYYWVYIVRYGYDYWGQGTQVTVSS”, the “polyreactivity (PSR sort gate)” value was “low polyreactivity”. With “QVQLVESGGGLVQAGGSLRLSCAASGGIFDTYAMGWYRQAPGKERELVAAISRRGGNTYYADSVKGRFTIARDNAKNTVYLQMNSLKPEDTAVYYCAAYYHGRMDYWGQGTQVTVSS” the “polyreactivity (PSR sort gate)” value was “high polyreactivity”. For “QVQLVESGGGLVQAGGSLRLSCAASGGIFDTYVMGWYRQAPGKETELVAAISSSGSTTYADSVKGRFTISRDNAKNTVYLQMNSLKPEDTAVYYCNADYSTIWRYDYWGQGTQVTVSS”, the “polyreactivity (PSR sort gate)” value was “low polyreactivity”. In the case of “QVQLVESGGGLVQAGGSLRLSCAASGGIFDYYAMGWYRQAPGKERELVAAIRGGGSTNYADSVKGRFTISRDNAKNTVYLQMNSLKPEDTAVYYCAKRAGPEYDYWGQGTQVTVSS”, the “polyreactivity (PSR sort gate)” value is reported as “low polyreactivity”. For “QVQLVESGGGLVQAGGSLRLSCAASGGIFEAYVMGWYRQAPGKERELVAAISFRGGSTYYADSVKGRFTISRDNAKNTVYLQMNSLKPEDTAVYYCAADYRHQGYDYWGLGTQVTVSS”, the “polyreactivity (PSR sort gate)” value was “low polyreactivity”. For “QVQLVESGGGLVQAGGSLRLSCAASGGIFEAYVMGWYRQAPGKERELVAAISFRGGSTYYADSVQGRFTISRVNAKNSVYLQMNSLKPEDTAVYYCAADYRHQGYDYWGQGTQVTVSS”, the “polyreactivity (PSR sort gate)” value was “low polyreactivity”. With “QVQLVESGGGLVQAGGSLRLSCAASGGIFEYYAMGWYRQAPGKERELVAAINTGGNTYYADSVKGRFTISRDNAKNTVYLQMNSLKPEDTAVYYCATDPIWYGGYLSGTDYDYWGQGTQVTVSS” the “polyreactivity (PSR sort gate)” value was “low polyreactivity”. With “QVQLVESGGGLVQAGGSLRLSCAASGGIFFINAMGWYRQAPGKERELIAAISISDGSTYYADSVKGRFTISRDNAKNTVYLQMNSLKTEDTAVYYCAADYDVLRLGYARIPLYDYWGQGTQVTVSS” the “polyreactivity (PSR sort gate)” value was “low polyreactivity”. In the case of “QVQLVESGGGLVQAGGSLRLSCAASGGIFFPNAMGWYRQAPGKERELGAAISWSAGSTYYADSVKGRFTISRDNAKNTVYLQMNSLKPEDTAVYYCAAAGSNYTVWYGYYYWGQGTQVTVSS”, the “polyreactivity (PSR sort gate)” value is reported as “low polyreactivity”. In the case of “QVQLVESGGGLVQAGGSLRLSCAASGGIFFPNAMGWYRQAPGKERELVAAISWSAGSTYYADSVKGRFTISRDNAKNTVYLQMNSLKPEDTAVYYCAAAGSNYTVWYGYYYWGQGTQVTVSS”, the “polyreactivity (PSR sort gate)” value is reported as “low polyreactivity”. In the case of “QVQLVESGGGLVQAGGSLRLSCAASGGIFFRNDMGWYRQAPGKERELVAAISSNGGSTYYADSVKGRFTISRDNAKNTVYLQMNSLKPEDTAVYYCNTGVYSSGGPLDYWGQGTQVTVSS”, the “polyreactivity (PSR sort gate)” value is reported as “low polyreactivity”. In the case of “QVQLVESGGGLVQAGGSLRLSCAASGGIFFSYAMGWYRQAPGKERELVAAIRTNGGTTYYADSVKGRFTISRDNAKNTVYLQMNRLKPEDTAVYYCAALPGGYYDRGEYDYWGQGTQVTVSS”, the “polyreactivity (PSR sort gate)” value is reported as “low polyreactivity”. For “QVQLVESGGGLVQAGGSLRLSCAASGGIFGDYAMGWYRQEPGKERELVAAINSGDSTNYADSVKGRFTISRDNAKNTVYLQMNSLKPEDTAVYYCNARGYWVYYVEYDYWGQGTQVTVSS”, the “polyreactivity (PSR sort gate)” value was “low polyreactivity”. With “QVQLVESGGGLVQAGGSLRLSCAASGGIFGKYVMGWYRQAPGKERELVAGISRSAGITYYADSVKGRFTISRDNAKNTVYLQMNSLKPEDTAVYYCNARAWSYPSYHVGYDYWGQGTQVTVSS” the “polyreactivity (PSR sort gate)” value was “high polyreactivity”. In the case of “QVQLVESGGGLVQAGGSLRLSCAASGGIFGWYAMGWYRQAPGKERELVATITWRGGRTYYADSVKGRFTISRDNAKNTVYLQMNSLKPEDTAVYYCNAEWLWYDAGYRYTIRDSWGQGTQVTVSS”, the “polyreactivity (PSR sort gate)” value is reported as “low polyreactivity”. With “QVQLVESGGGLVQAGGSLRLSCAASGGIFGYNMGWNRQAPGKEWELVAAITSGGITNYADSVKGRFTISRDNAKNTVYLQMNSLKPQDTAVNYCNRSPGGGKETVLGGDYWGQGTQVTVSS” the “polyreactivity (PSR sort gate)” value was “low polyreactivity”. In the case of “QVQLVESGGGLVQAGGSLRLSCAASGGIFIANAMGWYRQAPGKERELVAAISSSGGSTYYADSVKGRFTISRDNAKNTVYLQMNSLKPEDTAVYYCAARRSVRRGGDYYWGQGTQVTVSS”, the “polyreactivity (PSR sort gate)” value is reported as “high polyreactivity”. For “QVQLVESGGGLVQAGGSLRLSCAASGGIFIFYAMGWYRQATGKERELVAASSNVSSTNYADSVKGRFTISRDNAKNTVYLQMNSLKPEDTAVYYCAAYYYYFYHKVIWYELDYWGQGTQVTVSS”, the “polyreactivity (PSR sort gate)” value was “low polyreactivity”. In the case of “QVQLVESGGGLVQAGGSLRLSCAASGGIFIRYAMGSYRQAPGKERELVAAITQSGAGTNYADSVKGRFTISRDNAKNTVYLQMNSLKPEDTAVYYCAATGLPGYYAYDYWGQGTQVTVSS”, the “polyreactivity (PSR sort gate)” value is reported as “low polyreactivity”. In the case of “QVQLVESGGGLVQAGGSLRLSCAASGGIFKQYAMGWYRQAPGKERELVAAITWSGGSTYYADSVKGRFTISRDYAKNTVYLQMNSLKPEDTAVYYCAKDYVLFQYVDFQDDDYWGQGTQVTVSS”, the “polyreactivity (PSR sort gate)” value is reported as “low polyreactivity”. With “QVQLVESGGGLVQAGGSLRLSCAASGGIFLPYAMGWYRQAPGKERELVAGITSVGSTYADSVKGRFTISRDNAKNTVYLQMNSLKPEDTAVYYCNADIYFVEYDYWGQGTQVTVSS” the “polyreactivity (PSR sort gate)” value was “low polyreactivity”. In the case of “QVQLVESGGGLVQAGGSLRLSCAASGGIFNYYAMGWYRPAPGKVRELVAAISASGGSTYYADSVKGRFTISRDNAKNTVYLQMNSLIQEDTAVYYCAAGLPYGYGYDYWGQGTQVTVSS”, the “polyreactivity (PSR sort gate)” value is reported as “low polyreactivity”. In the case of “QVQLVESGGGLVQAGGSLRLSCAASGGIFNYYAMGWYRQAPGKDRELVAAISASGGSTYYADSVKGRFTISRDYAKNTVYLQMNSLKPEDTAVYYCASGLPYGYGYDYWGQGTQVTVSS”, the “polyreactivity (PSR sort gate)” value is reported as “low polyreactivity”. In the case of “QVQLVESGGGLVQAGGSLRLSCAASGGIFPFNGMGWYRQAPGKERELVAAISSGGRTYYADSVKGRFTISRDNAKNTVYLQMNSLKPEDTAVYYCAARTSRYYYYPYAFYWGQGTQVTVSS”, the “polyreactivity (PSR sort gate)” value is reported as “high polyreactivity”.
